# T1: VENTX HD fragment (UniProt O95231 69-178)
# T1 sequence: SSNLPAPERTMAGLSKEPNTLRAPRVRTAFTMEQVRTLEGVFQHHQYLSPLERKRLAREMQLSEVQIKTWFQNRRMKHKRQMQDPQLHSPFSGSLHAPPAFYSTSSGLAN
# T2: En1 HD fragment (UniProt P09065 282-401)
# T2 sequence: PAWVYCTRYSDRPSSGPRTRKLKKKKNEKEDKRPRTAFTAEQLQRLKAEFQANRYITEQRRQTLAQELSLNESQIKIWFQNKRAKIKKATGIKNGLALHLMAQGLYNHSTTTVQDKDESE
# T3: Barx1 HD fragment (UniProt Q9ER42 95-221)
# T3 sequence: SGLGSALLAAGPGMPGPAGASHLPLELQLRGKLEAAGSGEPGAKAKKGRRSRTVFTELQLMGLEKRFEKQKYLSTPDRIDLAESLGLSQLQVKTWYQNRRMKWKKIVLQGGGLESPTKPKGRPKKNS
# Assays:
# Alx1 (Cart1) HD fragment = Alx1 (Cart1) HD fragment (UniProt Q8C8B0 105-220); test: EMSA; EMSA, 34 nM IRDye700 probe, room temperature 20 min, 4% polyacrylamide gel 150 V 2 h; binding buffer as in cited ref 35 (not given); details: protein: recombinant; tags: N-terminal 6xHis (pET-14b or pET-14P; may be cleaved); chain copies: 2; label: 5' IRDye700 on bottom strand; blunt
# Gsx1 HD fragment = Gsx1 HD fragment (UniProt P31315 127-261); test: as above; details: protein: recombinant; tags: N-terminal 6xHis (pET-14b or pET-14P; may be cleaved); chain copies: 2; label: 5' IRDye700 on bottom strand; blunt
# Msx2 HD fragment = Msx2 HD fragment (UniProt Q03358 99-227); test: as above; details: protein: recombinant; tags: N-terminal 6xHis (pET-14b or pET-14P; may be cleaved); chain copies: 2; label: 5' IRDye700 on bottom strand; blunt
# VENTX HD fragment = target: T1, VENTX HD fragment; test: as above; details: protein: recombinant; tags: N-terminal 6xHis (pET-14b or pET-14P; may be cleaved); chain copies: 2; label: 5' IRDye700 on bottom strand; blunt
# HESX1 HD fragment = HESX1 HD fragment (UniProt Q9UBX0 65-185); test: as above; details: protein: recombinant; tags: N-terminal 6xHis (pET-14b or pET-14P; may be cleaved); label: 5' IRDye700 on bottom strand; blunt
# Alx4 HD fragment = Alx4 HD fragment (UniProt O35137 157-291); test: as above; details: protein: recombinant; tags: N-terminal 6xHis (pET-14b or pET-14P; may be cleaved); chain copies: 2; label: 5' IRDye700 on bottom strand; blunt
# MSX1 HD fragment = MSX1 HD fragment (UniProt P28360 131-258); test: as above; details: protein: recombinant; tags: N-terminal 6xHis (pET-14b or pET-14P; may be cleaved); label: 5' IRDye700 on bottom strand; blunt
# Barhl2 HD fragment = Barhl2 HD fragment (UniProt Q8VIB5 190-316); test: as above; details: protein: recombinant; tags: N-terminal 6xHis (pET-14b or pET-14P; may be cleaved); label: 5' IRDye700 on bottom strand; blunt
# En1 HD fragment = target: T2, En1 HD fragment; test: as above; details: protein: recombinant; tags: N-terminal 6xHis (pET-14b or pET-14P; may be cleaved); label: 5' IRDye700 on bottom strand; blunt
# Gsx2 HD fragment = Gsx2 HD fragment (UniProt P31316 167-305); test: EMSA; 100 and 400 nM protein; EMSA, 34 nM IRDye700 probe, room temperature 20 min, 4% polyacrylamide gel 150 V 2 h; binding buffer as in cited ref 35 (not given); details: protein: recombinant; tags: N-terminal 6xHis (pET-14b or pET-14P; may be cleaved); chain copies: 2; label: 5' IRDye700 on bottom strand; blunt
# Dlx2 HD fragment = Dlx2 HD fragment (UniProt P40764 137-229); test: EMSA; 20 and 80 nM protein; monomer; EMSA, 34 nM IRDye700 probe, room temperature 20 min, 4% polyacrylamide gel 150 V 2 h; binding buffer as in cited ref 35 (not given); details: protein: recombinant; tags: N-terminal 6xHis (pET-14b or pET-14P; may be cleaved); label: 5' IRDye700 on bottom strand; blunt
# Arx HD fragment = Arx HD fragment (UniProt O35085 292-420); test: EMSA; EMSA, 34 nM IRDye700 probe, room temperature 20 min, 4% polyacrylamide gel 150 V 2 h; binding buffer as in cited ref 35 (not given); details: protein: recombinant; tags: N-terminal 6xHis (pET-14b or pET-14P; may be cleaved); chain copies: 2; label: 5' IRDye700 on bottom strand; blunt
# Barx1 HD fragment = target: T3, Barx1 HD fragment; test: as above; details: protein: recombinant; tags: N-terminal 6xHis (pET-14b or pET-14P; may be cleaved); chain copies: 2; label: 5' IRDye700 on bottom strand; blunt
# Chain of MSX1 HD fragment (P28360 131-258): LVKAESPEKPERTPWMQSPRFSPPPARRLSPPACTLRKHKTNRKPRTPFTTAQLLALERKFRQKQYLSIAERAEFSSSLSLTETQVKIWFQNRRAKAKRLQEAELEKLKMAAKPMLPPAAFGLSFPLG
# Chain of HESX1 HD fragment (Q9UBX0 65-185): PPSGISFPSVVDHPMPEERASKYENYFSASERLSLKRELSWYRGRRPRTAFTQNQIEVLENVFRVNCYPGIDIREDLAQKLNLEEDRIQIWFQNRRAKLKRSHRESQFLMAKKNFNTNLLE
# Chain of Gsx2 HD fragment (P31316 167-305): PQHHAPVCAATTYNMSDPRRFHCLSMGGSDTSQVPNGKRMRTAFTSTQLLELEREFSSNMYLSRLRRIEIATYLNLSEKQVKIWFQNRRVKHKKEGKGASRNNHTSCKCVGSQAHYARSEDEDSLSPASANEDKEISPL
# Chain of Alx1 (Cart1) HD fragment (Q8C8B0 105-220): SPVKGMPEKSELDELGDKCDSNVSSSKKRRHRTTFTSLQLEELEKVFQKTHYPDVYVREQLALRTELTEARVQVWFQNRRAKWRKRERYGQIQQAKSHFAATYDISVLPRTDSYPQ
# Chain of Barhl2 HD fragment (Q8VIB5 190-316): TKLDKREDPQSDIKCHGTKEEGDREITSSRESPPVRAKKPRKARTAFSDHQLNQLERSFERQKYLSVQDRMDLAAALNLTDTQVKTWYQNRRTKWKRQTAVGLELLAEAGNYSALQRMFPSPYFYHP
# Chain of Alx4 HD fragment (O35137 157-291): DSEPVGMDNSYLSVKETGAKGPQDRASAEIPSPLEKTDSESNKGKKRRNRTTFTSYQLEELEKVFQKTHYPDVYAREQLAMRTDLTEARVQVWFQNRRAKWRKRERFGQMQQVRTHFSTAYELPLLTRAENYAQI
# Chain of Arx HD fragment (O35085 292-420): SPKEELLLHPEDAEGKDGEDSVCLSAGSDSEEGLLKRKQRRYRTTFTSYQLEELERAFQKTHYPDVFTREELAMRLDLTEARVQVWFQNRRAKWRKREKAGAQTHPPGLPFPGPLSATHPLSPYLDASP
# Chain of Gsx1 HD fragment (P31315 127-261): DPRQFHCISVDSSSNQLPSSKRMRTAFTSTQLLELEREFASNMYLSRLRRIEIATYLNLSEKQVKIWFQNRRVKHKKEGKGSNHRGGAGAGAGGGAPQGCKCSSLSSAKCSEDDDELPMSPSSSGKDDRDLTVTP
# Chain of Dlx2 HD fragment (P40764 137-229): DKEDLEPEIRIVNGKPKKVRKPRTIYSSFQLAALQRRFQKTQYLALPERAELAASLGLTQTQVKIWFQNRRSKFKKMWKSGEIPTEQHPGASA
# Chain of Msx2 HD fragment (Q03358 99-227): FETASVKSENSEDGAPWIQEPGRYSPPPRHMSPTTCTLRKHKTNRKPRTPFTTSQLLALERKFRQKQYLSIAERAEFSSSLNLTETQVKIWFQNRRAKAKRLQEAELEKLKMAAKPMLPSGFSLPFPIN
binder,measurement,setting,value
Alx1_SELEX_2 (dsDNA) DNA 1: TGCGCCTAATTAGATTAACCTGAACAGATAGTGCGGGCGTGGCT DNA 2: AGCCACGCCCGCACTATCTGTTCAGGTTAATCTAATTAGGCGCA,cooperativity factor (tau),Alx1 (Cart1) HD fragment,126 ± 27.2 Tau cooperativity factor
Alx1_SELEX_2+1 (dsDNA) DNA 1: TGCGCCTAATTAGGATTAACCTGAACAGATAGTGCGGGCGTGGCT DNA 2: AGCCACGCCCGCACTATCTGTTCAGGTTAATCCTAATTAGGCGCA,cooperativity factor (tau),Alx1 (Cart1) HD fragment,10.1 ± 9.7 Tau cooperativity factor
Gsx1_HOMER (dsDNA) DNA 1: TCACACTTAATTACTAATTAATTACGTAGTGCGGGCGTGGCT DNA 2: AGCCACGCCCGCACTACGTAATTAATTAGTAATTAAGTGTGA,cooperativity factor (tau),Gsx1 HD fragment,48.7 ± 12.9 Tau cooperativity factor
Gsx1_HOMER+1 (dsDNA) DNA 1: TCACACTTAATTACTGAATTAATTACGTAGTGCGGGCGTGGCT DNA 2: AGCCACGCCCGCACTACGTAATTAATTCAGTAATTAAGTGTGA,cooperativity factor (tau),Gsx1 HD fragment,2.9 ± 0.9 Tau cooperativity factor
Msx2_SELEX_2 (dsDNA) DNA 1: TGCGGGGCAATTAAATACCAATTAGTGATAGTGCGGGCGTGGCT DNA 2: AGCCACGCCCGCACTATCACTAATTGGTATTTAATTGCCCCGCA,cooperativity factor (tau),Msx2 HD fragment,14 ± 2.6 Tau cooperativity factor
Msx2_SELEX_2+1 (dsDNA) DNA 1: TGCGGGGCAATTAAATGACCAATTAGTGATAGTGCGGGCGTGGCT DNA 2: AGCCACGCCCGCACTATCACTAATTGGTCATTTAATTGCCCCGCA,cooperativity factor (tau),Msx2 HD fragment,2.1 ± 0.6 Tau cooperativity factor
VENTX_SELEX_1 (dsDNA) DNA 1: TGAAGTTAAGCCTAATCGATAAACGATTAGCGTTAGGAATAGTGCGGGCGTGGCT DNA 2: AGCCACGCCCGCACTATTCCTAACGCTAATCGTTTATCGATTAGGCTTAACTTCA,cooperativity factor (tau),VENTX HD fragment,36.7 ± 3.9 Tau cooperativity factor
VENTX_SELEX_1+1 (dsDNA) DNA 1: TGAAGTTAAGCCTAATCGATAGAACGATTAGCGTTAGGAATAGTGCGGGCGTGGCT DNA 2: AGCCACGCCCGCACTATTCCTAACGCTAATCGTTCTATCGATTAGGCTTAACTTCA,cooperativity factor (tau),VENTX HD fragment,3.3 ± 3 Tau cooperativity factor
HESX1_HOMER (dsDNA) DNA 1: TCTTCTCTAATTAGTGCTAATTCTGTAGTGCGGGCGTGGCT DNA 2: AGCCACGCCCGCACTACAGAATTAGCACTAATTAGAGAAGA,cooperativity factor (tau),HESX1 HD fragment,1.7 ± 2 Tau cooperativity factor
HESX1_HOMER+1 (dsDNA) DNA 1: TCTTCTCTAATTAGTGGCTAATTCTGTAGTGCGGGCGTGGCT DNA 2: AGCCACGCCCGCACTACAGAATTAGCCACTAATTAGAGAAGA,cooperativity factor (tau),HESX1 HD fragment,1.3 ± 1.8 Tau cooperativity factor
Alx4_SELEX_1 (dsDNA) DNA 1: TGTGTCTTAATTAGATTAACGCACTTGATAGTGCGGGCGTGGCT DNA 2: AGCCACGCCCGCACTATCAAGTGCGTTAATCTAATTAAGACACA,cooperativity factor (tau),Alx4 HD fragment,167 ± 23.1 Tau cooperativity factor
MSX1_SELEX_1 (dsDNA) DNA 1: TGCGAACAGAAGCCAATTAGTGCTAATTGGCCAATTAGCTAGTGCGGGCGTGGCT DNA 2: AGCCACGCCCGCACTAGCTAATTGGCCAATTAGCACTAATTGGCTTCTGTTCGCA,cooperativity factor (tau),MSX1 HD fragment,1.2 ± 0.1 Tau cooperativity factor
MSX1_SELEX_1+1 (dsDNA) DNA 1: TGCGAACAGAAGCCAATTAGTGGCTAATTGGCCAATTAGCTAGTGCGGGCGTGGCT DNA 2: AGCCACGCCCGCACTAGCTAATTGGCCAATTAGCCACTAATTGGCTTCTGTTCGCA,cooperativity factor (tau),MSX1 HD fragment,1.2 ± 0.2 Tau cooperativity factor
Barhl2_SELEX_1 (dsDNA) DNA 1: TATTGTTGCTAAACGGTGCGTTTAGCGTGTAGTGCGGGCGTGGCT DNA 2: AGCCACGCCCGCACTACACGCTAAACGCACCGTTTAGCAACAATA,cooperativity factor (tau),Barhl2 HD fragment,5.4 ± 0.58 Tau cooperativity factor
Barhl2_SELEX_1+1 (dsDNA) DNA 1: TATTGTTGCTAAACGGTGGCGTTTAGCGTGTAGTGCGGGCGTGGCT DNA 2: AGCCACGCCCGCACTACACGCTAAACGCCACCGTTTAGCAACAATA,cooperativity factor (tau),Barhl2 HD fragment,6.4 ± 1.2 Tau cooperativity factor
En1_SELEX_2 (dsDNA) DNA 1: TGTAGGATAATTGGGTAATTAGTGCAGATAGTGCGGGCGTGGCT DNA 2: AGCCACGCCCGCACTATCTGCACTAATTACCCAATTATCCTACA,cooperativity factor (tau),En1 HD fragment,0.1 ± 0.1 Tau cooperativity factor
En1_SELEX_2+1 (dsDNA) DNA 1: TGTAGGATAATTGGGGTAATTAGTGCAGATAGTGCGGGCGTGGCT DNA 2: AGCCACGCCCGCACTATCTGCACTAATTACCCCAATTATCCTACA,cooperativity factor (tau),En1 HD fragment,0.2 ± 0.1 Tau cooperativity factor
Alx4_SELEX_1+1 (dsDNA) DNA 1: TGTGTCTTAATTAGGATTAACGCACTTGATAGTGCGGGCGTGGCT DNA 2: AGCCACGCCCGCACTATCAAGTGCGTTAATCCTAATTAAGACACA,cooperativity factor (tau),Alx4 HD fragment,1.1 ± 0.8 Tau cooperativity factor
Gsx2_SELEX_1 (dsDNA) DNA 1: TCCAACAACAATTAAAAACATATTAACGTAGTGCGGGCGTGGCT DNA 2: AGCCACGCCCGCACTACGTTAATATGTTTTTAATTGTTGTTGGA,binding result,Gsx2 HD fragment,binds
Gsx2_SELEX_2 (dsDNA) DNA 1: TCCAACAGTCATTAAACTCTCATTATCGTAGTGCGGGCGTGGCT DNA 2: AGCCACGCCCGCACTACGATAATGAGAGTTTAATGACTGTTGGA,binding result,Gsx2 HD fragment,binds
Dlx2_HOMER (dsDNA) DNA 1: TTCATGGGTAATTAGGTGTTATTATAGTGCGGGCGTGGCT DNA 2: AGCCACGCCCGCACTATAATAACACCTAATTACCCATGAA,binding result,Dlx2 HD fragment,binds
Dlx2_SELEX_2 (dsDNA) DNA 1: TTCATGCAATTACTGCTAATTGCCACTATAGTGCGGGCGTGGCT DNA 2: AGCCACGCCCGCACTATAGTGGCAATTAGCAGTAATTGCATGAA,binding result,Dlx2 HD fragment,binds
Arx_SELEX_1 (dsDNA) DNA 1: TGCGTTGCTAATTGAATTAGCACACGTGCTAGTGCGGGCGTGGCT DNA 2: AGCCACGCCCGCACTAGCACGTGTGCTAATTCAATTAGCAACGCA,cooperativity factor (tau),Arx HD fragment,168 ± 50.7 Tau cooperativity factor
Arx_SELEX_1+1 (dsDNA) DNA 1: TGCGTTGCTAATTGGAATTAGCACACGTGCTAGTGCGGGCGTGGCT DNA 2: AGCCACGCCCGCACTAGCACGTGTGCTAATTCCAATTAGCAACGCA,cooperativity factor (tau),Arx HD fragment,36.4 ± 11.5 Tau cooperativity factor
Barx1_SELEX_2 (dsDNA) DNA 1: TATTCGAAACAATTAAATAACGATTACTGTAGTGCGGGCGTGGCT DNA 2: AGCCACGCCCGCACTACAGTAATCGTTATTTAATTGTTTCGAATA,cooperativity factor (tau),Barx1 HD fragment,4.4 ± 0.6 Tau cooperativity factor
Barx1_SELEX_2+1 (dsDNA) DNA 1: TATTCGAAACAATTAAATAGACGATTACTGTAGTGCGGGCGTGGCT DNA 2: AGCCACGCCCGCACTACAGTAATCGTCTATTTAATTGTTTCGAATA,cooperativity factor (tau),Barx1 HD fragment,0.7 ± 0.2 Tau cooperativity factor

# From PMC10325903, “Prediction of cooperative homeodomain DNA binding sites from high-throughput-SELEX data”
